From article PMC2258145, “Transcriptional Regulation of PIK3CA Oncogene by NF-κB in Ovarian Cancer Microenvironment”

Molecular target: NF-kB p50 (recombinant, Promega) (UniProt P19838 1-433)
Assay: EMSA; LightShift EMSA kit binding buffer, 1 ug poly(dI-dC), 30 fmol biotin probe, 20 ul, room temperature 20 min; 7.5% PAGE in 0.25x TBE; salt and pH not stated
Settings: protein: commercial; chain copies: 2; label: 5'-biotin; blunt

Sequence of NF-kB p50 (recombinant, Promega) (P19838 1-433): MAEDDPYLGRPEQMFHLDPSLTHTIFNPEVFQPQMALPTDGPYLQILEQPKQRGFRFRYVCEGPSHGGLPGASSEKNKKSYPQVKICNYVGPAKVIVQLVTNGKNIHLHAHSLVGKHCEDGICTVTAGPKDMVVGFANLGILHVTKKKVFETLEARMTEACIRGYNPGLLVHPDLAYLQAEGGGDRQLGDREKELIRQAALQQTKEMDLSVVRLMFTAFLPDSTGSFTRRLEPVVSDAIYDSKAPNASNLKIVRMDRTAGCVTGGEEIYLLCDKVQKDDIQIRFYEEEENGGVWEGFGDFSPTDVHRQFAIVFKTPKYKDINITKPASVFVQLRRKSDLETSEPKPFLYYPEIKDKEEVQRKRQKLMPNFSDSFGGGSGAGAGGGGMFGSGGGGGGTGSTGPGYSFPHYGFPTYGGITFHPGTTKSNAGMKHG

B1: wt huPIK3CA NF-kB probe (dsDNA)
DNA 1: GACGTGGGGGATTTTTCGCGTA
DNA 2: TACGCGAAAAATCCCCCACGTC
- binding result: binds
